Laboratory results as given in publication PMC3689302.

Target: Bh-RNase HC (RNase HI catalytic domain, D132N) (Bacillus halodurans (genomic DNA from …, UniProt Q9KEI9 58-196, D132N))
Assay: X-ray crystallography

B1: Dickerson-Drew dodecamer (DDD) (dsDNA)
DNA 1: CGCGAATTCGCG
DNA 2: CGCGAATTCGCG
binding result: binds
